Reference: patent US10494417B2, “Peptide inhibitors of BCR-ABL oligomerization” (University of Utah Research Foundation, priority 2014, dated 2019)
Entries after “also recorded” stand apart in the source; their conditions may differ.

How the values were obtained:
Format in all cases: cell-based, mouse
[1] = system: Ba/F3 cells expressing BCR-ABL1E255V/T315I; test: Annexin V/7-AAD apoptosis assay in Ba/F3 BCR-ABL1 E255V/T315I cells; conditions: 72 h, CCmut3 vs EV
Procedure: (§1) For analysis of apoptosis and cell death, cells were pelleted and resuspended in Annexin V-binding buffer (BD Biosciences), stained with anti-Annexin V-APC (BD Biosciences or Life Technologies) and 7-AAD (BD Biosciences or Life Technologies) and analyzed on a BD FACSCanto flow cytometer. In addition to the APC and 7-AAD channels, GFP- and mCherry-positive cells were also recorded.
as §1, with “apoptosis and necrotic cell death,” for “apoptosis and cell death,”, “anti-Annexin V-APC and 7-AAD” for “anti-Annexin V-APC (BD Biosciences or Life Technologies) and 7-AAD”

[2] = system: Ba/F3 cells expressing BCR-ABL1T315I; test: Proliferation of transfected Ba/F3 BCR-ABL1 T315I cells (MTS assay); conditions: CCmut3 vs EV; for proliferation, in words: MTS assay at 72 and 96 h
Procedure: (§2) Stable recombinant Ba/F3 cells transduced with wild type p210 BCR-ABL1 (Daley, G. Q., et al. (1991) Proc. Natl. Acad. Sci. U.S.A. 88, 11335-11338), the kinase domain mutants p210^T315I p210^[…], or the compound mutant p210^E255V/T315I were as previously described (La Rosee, P., et al. (2002) Cancer Res. 62, 7149-7153; O'Hare, T., et al. (2004) Blood 104, 2532-2539). These cells were cultured in RPMI with 10% FBS, 1% penicillin, streptomycin, glutamine, and 0.1% gentamycin (RPMI1640). Additionally 0.1% MycoZap™ (Lonza Bio, Basel, Switzerland) was added to prevent mycoplasma contamination. The non-transduced parental Ba/F3 cell line was grown in RPMI1640 supplemented with 20% WEHI-3B conditioned medium as a source of murine IL-3 (Dexter, T. M., et al. (1980) J. Exp. Med. 152, 1036-1047). Ba/F3 cells were transfected with plasmid DNA using the Amaxa nucleofection system (Lonza Bio), following the manufacturer's instructions. Cells were sorted on a BD FACSAria cytometer (BD Biosciences, San Jose, Calif.) for double-positive cells expressing mCherry and GFP then returned to RPMI1640 for subsequent experiments.
(§3) Cell proliferation was assessed using the CellTiter 96® AQueous One Solution Cell Proliferation Assay (MTS assay, Promega) according to manufacturer instructions. Briefly, 5,000 viable cells were added to a single well in 96-well plate in 100 μL RPMI1640. Three independent samples were seeded in duplicate for each time point. […] In some experiments, cell proliferation was assessed using a Neubauer chamber and trypan blue dye exclusion.
(§4) Stable Ba/F3 cells transduced with native (p210) BCR-ABL1, the kinase domain mutants BCR-ABL1T315I, BCR-ABL1E255V, or the compound mutant BCR-ABL1E255V/T315I were cultured. […]
(§5) Cell proliferation was assessed using a […] viability assay (MTS assay) utilizing CellTiter 96® AQueous One Solution Cell Proliferation Assay (Promega) according to manufacturer instructions. […] Cell growth was assessed by MTS assay at 72 and 96 h. […] In patient sample experiments, cell proliferation was assessed by trypan blue exclusion.

[3] = system: Ba/F3 cells expressing BCR-ABL1E255V; test: Proliferation of transfected Ba/F3 BCR-ABL1 E255V cells (MTS assay); conditions: CCmut3 vs EV; for proliferation, in words: MTS assay at 72 and 96 h
Procedure: as §2, §3, §4, §5

[4] = system: Ba/F3 cells expressing BCR-ABL1E255V; test: Colony forming assay of Ba/F3 BCR-ABL1 E255V cells; conditions: for colony formation, in words: CCmut3 gene delivery (transfection; b502 lentiviral infection) vs EV; for reduction in CFCs / colony forming ability: CCmut3 vs EV
Procedure: Following selection of transfected cells by cell sorting, viable cells were enumerated and seeded into methylcellulose as described previously (Dixon, A. S., et al. (2011) J. Biol. Chem. 286, 27751-27760). Briefly, mCherry-positive Ba/F3 cells were re-suspended in IMDM with 2% FBS (Stem Cell Technologies) at a concentration of 10,000 cells/mL. Three hundred microliters of this dilution was added to 3 mL of Methocult media (M3434—Ba/F3 p210 wild-type and mutant lines or M3234—Ba/F3 parental, Stem Cell Technologies). Approximately 1100 cells, or 1.2 mL, were seeded per dish in duplicate for each transfection. Colonies were counted 7 days later in an area of […] per dish.
Following selection of transfected cells by cell sorting, methylcellulose colony assays were performed by plating in 0.9% methylcellulose (Stem Cell Technologies; M3234 for Ba/F3 BCR-ABL1 native and mutant lines; M3434 for Ba/F3 parental cells; H4230 for CML patient samples). mCherry-positive Ba/F3 cells (1.1×10^3 cells/plate) or GFP-positive primary CML CD34+ cells (1×10^3 cells/plate) were seeded per dish in duplicate. In the case of CML patient samples, cells were plated in the presence of 1× StemSpan CC100 cytokine cocktail (StemCell Technologies). All cells were plated with or without the indicated TKI in three or more independent experiments. Plates were incubated at 37° C. in a 5% CO2 humidified incubator. Colonies were counted 7-14 days later in an area of 50 μm2 per dish using an inverted microscope.

[5] = system: Ba/F3 cells expressing BCR-ABL1E255V/T315I; test: Proliferation of transfected Ba/F3 BCR-ABL1 E255V/T315I cells (MTS assay); conditions: MTS assay at 72 and 96 h, CCmut3 vs EV
Procedure: Stable recombinant Ba/F3 cells transduced with wild type p210 BCR-ABL1 (Daley, G. Q., et al. (1991) Proc. Natl. Acad. Sci. U.S.A. 88, 11335-11338), the kinase domain mutants p210^T315I p210^[…], or the compound mutant p210^E255V/T315I were as previously described (La Rosee, P., et al. (2002) Cancer Res. 62, 7149-7153; O'Hare, T., et al. (2004) Blood 104, 2532-2539). These cells were cultured in RPMI with 10% FBS, 1% penicillin, streptomycin, glutamine, and 0.1% gentamycin (RPMI1640). Additionally 0.1% MycoZap™ (Lonza Bio, Basel, Switzerland) was added to prevent mycoplasma contamination. […]
Cell proliferation was assessed using the CellTiter 96® AQueous One Solution Cell Proliferation Assay (MTS assay, Promega) according to manufacturer instructions. […] In some experiments, cell proliferation was assessed using a Neubauer chamber and trypan blue dye exclusion. […]
as §5

B1: CCmut3: modified Bcr-Abl coiled-coil domain (residues 1-72) with mutations C38A, K39E, S41R, L45D, E48R, Q60E (protein)
chain: MVDPVGFAEAWKAQFPDSEPPRMELRSVGDIEQELERAEARIRRDEQRVNQERFRMIYLETLLAKEKKSYDR
apoptosis, in words [1]: Enhanced apoptosis; also recorded: effectively induced apoptosis
apoptosis, in words ([1]; listed as CC^mut3): significantly more apoptotic; also recorded: sensitive
reduction of proliferation ([2]; 96 h, MTS assay): approximately 3 fold
proliferation, in words [2]: significant reduction of proliferative capacity; also recorded: lesser, yet significant difference was noted at the 72 h time point
proliferation, in words ([2]; listed as CC^mut3): significant reduction
reduction of proliferation ([3]; 96 h, MTS assay): approximately 3 fold
proliferation, in words [3]: significant reduction of proliferative capacity; also recorded: lesser, yet significant difference was noted at the 72 h time point
proliferation, in words ([3]; listed as CC^mut3): significant reduction
colony formation, in words [4]: significantly fewer colonies per unit area
colony formation, in words ([4]; listed as CC^mut3): Inhibition in colony formation
reduction in CFCs / colony forming ability [4]: > 10 fold
reduction in CFCs / colony forming ability ([4]; listed as CC^mut3): more than 10 fold
proliferation, in words [5]: small yet significant growth reduction at 96 h but not 72 h; also recorded: significantly reduced proliferation of compound mutant cells at 96 h
proliferation, in words ([5]; listed as CC^mut3): significant growth reduction at 96 h; also recorded: smaller yet significant reduction in proliferation at 96 h
